Experiment: yeast display, Sf9 membrane polyspecificity reagent, FACS + sequencing; frameworks hold sequencing errors
How it was run: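 Nanobodies from a synthetic yeast display library (Saccharomyces cerevisiae BJ5465), induced 36–48 hours with galactose, were stained 1 hour at 4 °C with 10% biotinylated, detergent-solubilized Sf9 membrane reagent, enriched on streptavidin microbeads, then FACS-sorted. Anti-HA (expression) and streptavidin (reagent binding) fluorescence set low and high (top ~1%) gates. Polyreactivity labels come from the gate of origin. Genes were colony-PCR amplified, MiSeq 2 × 250 sequenced and filtered by CDR length.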

| Sequence | polyreactivity (PSR sort gate) |
| --- | --- |
| QVQLVESGGGLVQAGGSLRLTCAASGLTFPSYSMGWYRQAPGKERELVAAIYYSGGSTYYADSVKGRFTISRDNAKITVYIHMNSLKPEDTAVYYCAADFTSFFNRIDYWGQGTQVTVSS | low polyreactivity |
| QVQLVESGGGLVQAGGSLRLTCAASGNIFYSYAMGWYRQAPGKERELVAAITIDGSTTYADSVKGRFTISRDNAKNTVYLQMNSLKPEDTAVYYCAKEGEAYPATYRYQFDYWGQGTQVTVSS | low polyreactivity |
| QVQLVESGGGLVQAGGSLRLTCAASGNTFDYYAMGWYRQAPGKERELVAAITRGGSTNYADSVKGRFTISRDNAKNTVYLQMNSLKPEDTAVYYCAAEQRAPRFADYDYWGQGTQVTVSS | low polyreactivity |
| QVQLVESGGGLVQAGGSLRLTCAASGNTFVSNAMGWYRQAPGKERELVAAINSGGSTNYADSVKGRFTISRDNAKNTVYLQMNSLKPEDTAVYYCNKDYDYPQRYWMDFWGQGTQVTVSS | low polyreactivity |
| QVQLVESGGGLVQAGGSLRLTCAASGNTFYGYAMGWYRQAPGKERELVASITLSGDSTYYADSVKGRFTISRDNAKNTVYLQMNSLKPEDTAVYYCAGVYTYPLGYFHYTYDYWGQVTQVTVSS | low polyreactivity |
| QVQLVESGGGLVQAGGSLRLTCAASGRIFGTNAMGWYRQAPGKERELVADITSGGSTNYADSVKGRFTISRDNAKNTVYLLMNSLKPEDTAVYYCAADVIGDLRWYRDEYWGQGTQVTVSS | low polyreactivity |
| QVQLVESGGGLVQAGGSLRLTCAASGRIFGVYVMGWYRQAPGKERELVAAISWGGGTYYADSVKGRFTISRDNAKNNVYLQMNSLKPEDTSVYYCNAESYYTMYYWGQGTQVNVSS | low polyreactivity |
| QVQLVESGGGLVQAGGSLRLTCAASGRIFNAYAMGWYRQAPGKEREFVAAISYTVGSTYYADTVKGRFTISRDNAKITVNLQMISLKPEDTAVYYCAATGWDYYGGYDYWGQGTQVTVSS | high polyreactivity |
| QVQLVESGGGLVQAGGSLRLTCAASGRIFPRNTMGWYRQAPGKERELVAAISVSGGSTYYADSVKGRFTNSRDNAKNTVYLQMNSLKPEDTAVYYWAARSARLEYYYWGQGTQVTVSS | high polyreactivity |
| QVQLVESGGGLVQAGGSLRLTCAASGRIFVYNAMGWYRQAPGKESEFVATITSSGGRTYYADSVKGRFTISRDNAKNTVYLQMNSLKTEDTAVYDCAASPHNYGRNTVYRYKYWGQGTQVTVSS | high polyreactivity |
| QVQLVESGGGLVQAGGSLRLTCAASGRIFYHYAMGWYRQATGKERELVATISGAGSTHYADSVKGRFTISRDNAKNTVYLQMNSLKAEDTAVYYCNADTYLIRYWSMLEYWGQGTQVTVSS | low polyreactivity |
| QVQLVESGGGLVQAGGSLRLTCAASGRILDRYVMGWYRQAPGKERELVAAISQSGRGTYYADSVKGRFTISRDNAKNTVYLQMNSLKPEVTAVYYCAARGTGYHGYGYWGQGSQVTVSS | high polyreactivity |
| QVQLVESGGGLVQAGGSLRLTCAASGRIYTYNAMGRYRKAPGKERELVATITWRGGGTYYADSVKGRFTISRDNAKNTVYLQMNSLKPEDTAVYYCIRRLPGDGQYGYRRFDYWGQGTQVTVSS | low polyreactivity |
| QVQLVESGGGLVQAGGSLRLTCAASGRTFARNAMGWYRQAPGKERELVAAITRSGGSTYYADSVKGRFTISRDNAKNTVYLQMNSLKPEDTAVYYCAADVRTYRGYYWKAFDYWGQGTQVTVSS | high polyreactivity |
| QVQLVESGGGLVQAGGSLRLTCAASGRTFFYNAMGWYRPAPGKERELVAAISWSGGRTYYADSVKGRFTISRDNAKNTVYLQMNSLKPEDTAVYYCASTGFYSSHYHLDYWGQGTQLTVSS | high polyreactivity |
| QVQLVESGGGLVQAGGSLRLTCAASGRTFGTYAMGWSRQAPGKERELVAVITNGGGTYYADSVKGRFTISRDNAKNTVYLQMNSLKPEDTAVYYCNTDRYGLRRWVYSYWGGYDYWGQGTQVTVSS | low polyreactivity |
| QVQLVESGGGLVQAGGSLRLTCAASGRTFKGYAMGWYRQEPGKERELVAAISYRGGSTYYADSVKGRFTISRDNAKNTVYLQMNSLKPEDTAVYYCAAQGRSKYRGYYYWGQGTQVTVSS | high polyreactivity |
| QVQLVESGGGLVQAGGSLRLTCAASGRTFPGNAMGWYRQAPGKERELVAAISWSVDRTYYADSVKGRFTISRDNAKNTVYLQMNSLKPEDTAVYYCAAVHWWSSSLRMYYWGQGTQVTVSS | low polyreactivity |
| QVQLVESGGGLVQAGGSLRLTCAASGRTFQYYVMVWYRQAPGKEREFVAAISTSGGRTYYADSVKGRFTISRDNAKNSVYLQMNSLKPEATAVYYCAATGFSYRYFQTRDYWGQGTQVTVSS | high polyreactivity |
| QVQLVESGGGLVQAGGSLRLTCAASGRTFRIYAMGWYRQAPGKERELVAAITRRGGSTYYADSVKGRFTISLDNAKNTVNLQMNSLKPEDTAVYYCAAELRYGYLYPYDSWGQGTQVTVSS | high polyreactivity |
| QVQLVESGGGLVQAGGSLRLTCAASGRTFRSYAMGWYRQAPGKERELVAAISDGGSTNYADSVKGRFTISRDNAKNTVYLQMNSLKPEDTAVYYCAAEIFFAVFRFYYWGQGTQVTVSS | low polyreactivity |
| QVQLVESGGGLVQAGGSLRLTCAASGRTLRNYAMGWYRQPPGKERELVATITYRGGSTYYADSVKGRFTISRDNAKNTVYLKRNCLKPEDTAVYYCAARTSSYSFQYAYNYWGQGTQVTVSS | high polyreactivity |

| Sequence | polyreactivity (PSR sort gate) |
| --- | --- |
| QVQLVESGGGLVQAGGSLRLTCAASGRTLVPYVMGWYRQAPGKERELVASITSGGSTYYADSVKGRFTISRDNAKNTVYLQMNSLKPEDTAVYYCATRQSAERWGYYYWGQGTQVTVSS | low polyreactivity |
| QVQLVESGGGLVQAGGSLRLTCAASGSIFGTYAMGWYRQAPGKERQLVAAISWSDGSTYYADSVKGRFTISRDTAKNTFYLQMNSRKPEDTAVEYCAKVYRSIGPNVSRYGLSYYDWGHGTQVTVSS | low polyreactivity |
| QVQLVESGGGLVQAGGSLRLTCAASGSIFNGYAMGCYRQAPGKERELVAAIRTRGGSTYYADSVKGRFTISRDIAMNTVYLQMNSLKPEDTAVYYCAKRYFGWYGNFDYWGQGTQVTVSS | high polyreactivity |
| QVQLVESGGGLVQAGGSLRLTCAASGSIFRDNVMGWSRQAPGKERELVAAISKRGGSTYYADSVKGRFTISRDNAKNTVYLQMNSLKPEDTAVYYCAAPQGRSHYYRYDYWGQGTQVTVSS | high polyreactivity |
| QVQLVESGGGLVQAGGSLRLTCAASGSIFRRNAMGWYRQAPGKERELVAAISWSGGDTYYADSVKGRFTISRDNAKNTVYLQMNSLKPEDTAVYYCAAEYYRPYYGESYDYWGQGTQVTVSS | high polyreactivity |
| QVQLVESGGGLVQAGGSLRLTCAASGSIFRYYAMGWYRQAPGKERELVAAISRSGGSTYYADSVKGRFTISRDNAKNTVYLQMNSLKPEDTAVYYCAAEYRVRSQGYDYWGQGTQVTVSS | high polyreactivity |
| QVQLVESGGGLVQAGGSLRLTCAASGSIFSYYAMGWYRQAPGKERELVAAITSGGGTYYADSVKGRFTISRDNAKNTVFLQMNSLKPEDTAVYYCAKDGYPDQDVQVFNDSDYWGQGTQVTVSS | low polyreactivity |
| QVQLVESGGGLVQAGGSLRLTCAASGSIFVGYAMGWYRQAPGKERELVAAITGSGTRTYYADSVKGRFTISRDNAKNTVYLQMNSLKPEDTAVYYCAADYFRYYPYDYWGQGTQVTVSS | low polyreactivity |
| QVQLVESGGGLVQAGGSLRLTCAASGSIFVNNAMGWYRQAPGKERELVAAISSRSSRTFYADSVKGRFTISRDNAKNTVYLQMNSLKPEDTAVYYCAVKKRAPDGDYWGQGTQVTVSS | high polyreactivity |
| QVQLVESGGGLVQAGGSLRLTCAASGSIFVQNAMGWYRQEPGKERELVATISRRGGSTYYADSVKGRFTISRDNAKNTVYLQMNSLKPEDPAVYYSAARKLRTLWGYWGQGTQVTVSS | high polyreactivity |
| QVQLVESGGGLVQAGGSLRLTCAASGSIFYSYAMGWYRQAPGKERELVAAISWDASTYYADSVNGRFTISRDNAKNTVYLQMHSLKPEDSAVYYCNADIPYFFVFDAYDYWGQGTQVTVSS | low polyreactivity |
| QVQLVESGGGLVQAGGSLRLTCAASGSIFYYYAMGWYRQAPGKERELVASITYRGGSTYYADSVKGRFTISRDYAKNTVYLLMNSLKPEDTAFYYCAVVGYRYRHYYWGQGTQVTVSS | high polyreactivity |
| QVQLVESGGGLVQAGGSLRLTCAASGSILYYNAMGWYRQAPGKEREFVAAISDSGSSTYYADSVKGRFTISRDNAKNTVYLQMNSLKPEDTAVYYCNAYQGDKYDSWGQGTQVTVSS | low polyreactivity |
| QVQLVESGGGLVQAGGSLRLTCAASGSIYVGNAMGWNRHAPGKEREFVAAISRSGGRTYYADSVKGRFTISRDNEKNTVYLQMNSLKPEDTAVYYCNAYGWEQRQMDSWGQGTQVTVSS | high polyreactivity |
| QVQLVESGGGLVQAGGSLRLTCAASGSNFVYNAMGWYRQAPGKERELVAAISSRGGSTYYADSVKGRFTISRDNAKNTVYLQMKSLKPEDTAVYYCNAYGPRAYRGGSWGQGTQVTVSS | high polyreactivity |
| QVQLVESGGGLVQAGGSLRLTCAASGSSLDHYTMGWYRQAPGKEMELVAGIRWTGGRTYYADSVKGRFTISRDNAKNTVYLQMNSLKQEDNAVYYCAKTGWYGPVLRFYYWGQGTQVTVSS | high polyreactivity |
| QVQLVESGGGLVQAGGSLRLTCAASGSTFGWYAMGWYRQAPGKERELVAAIRSNGGSTYYADSVKGRFTISRDNAKNTVYLHMNSLKPEDTAVYYCAGRGSPSKHHWYDYWGQGTQVNVSS | low polyreactivity |
| QVQLVESGGGLVQAGGSLRLTCAASGSTFRWYAMGWYRQAPAKERELVAAIRSAGSTDYADSVKGRFTISRDNAKNTVYLQINSLKPEDTAVYYCAAYFRYRSSRYGYWGQGTQVTVSS | high polyreactivity |
| QVQLVESGGGLVQAGGSLRLTCAASGSTFRYYDMGWYRQAPGKERELVAAITTSGDDTYYADSVKRRFTISRDNAKNSVYLPMNSLKPEDTAVYYCAADGYGGHKYELESWGQGTQVTVSS | low polyreactivity |
| QVQLVESGGGLVQAGGSLRLTCAASGSTFSYYAMGWYRQPPRKERELVAVITWSGASTYYADSVKGRFTISRDNAKNTVYLQMNSLKPEDTAVYYCAADKYLSYDYWGQGTQVSVSS | low polyreactivity |
| QVQLVESGGGLVQAGGSLRLTCAASGSTFYFNAIGWYRQAPGKESELVAAISGGGRTNYADSVKGRFTISRDNAKNTVYLQMNSLKPEDTAVYYCAARNRGLRLSNYFGGNYNRDYWGQGTQVTVSS | low polyreactivity |

From the nanobody polyreactivity screen of Harvey et al. (2022)
